Laboratory results as given in article doi:10.1101/2024.05.21.594841.
Several values for one entry are separate records, joined by “and”; a condition that tells them apart may be missing. Identical values can stand only once.

Molecular target: these 5 target proteins
Assay: split reporter

normalized interacting score: 83% and 93%
B1: Lhs1p (natural protein)
chain: AVLGVDYGQQNIKAIVVSPQAPLELVLTPEAKRKEISGLSIKRLPGYGKDDPNGIERIYGSAVGSLATRFPQNTLLHLKPLLGKSLEDETTVTLYSKQHPGLEMVSTNRSTIAFLVDNVEYPLEELVAMNVQEIANRANSLLKDRDARTEDFVNKMSFTIPDFFDQHQRKALLDASSITTGIEETYLVSEGMSVAVNFVLKQRQFPPGEQQHYIVYDMGSGSIKASMFSILQPEDTTQPVTIEFEGYGYNPHLGGAKFTMDIGSLIENKFLETHPAIRTDELHANPKALAKINQAAEKAKLILSANSEASINIESLINDIDFRTSITRQEFEEFIADSLLDIVKPINDAVTKQFGGYGTNLPEINGVILAGGSSRIPIVQDQLIKLVSEEKVLRNVNADESAVNGVVMRGIKLSNSFKTKPLNVVDRSVNTYSFKLSNESELYDVFTRGSAYPNKTSILTNTTDSIPNNFTIDLFENGKLFETITVNSGAIKNSYSSDKCSSGVAYNITFDLSSDRLFSIQEVNCICQSENDIGNSKQIKNKGSRLAFTSEDVEIKRLSPSERSRLHEHIKLLDKQDKERFQFQENLNVLESNLYDARNLLMDDEVMQNGPKSQVEELSEMVKVYLDWLEDASFDTDPEDIVSRIREIGILKKKIELYMDSAKEPLNSQQFKGMLEEGHKLLQAIETHKNTVEEFLSQFETEFADTIDNVREEFKKIKQPAYVSKALSTWEETLTSFKNSISEIEKFLAKNLFGEDLREHLFEIKLQFDMYRTKLEEKLRLIKSGDESRLNEIKKLHLRNFRLQKRKEEKLKRKLEQEKSRNNNETESTVINSADDKTTIVNDKTTESNPSSEEDILHDEL
